Article PMC4317567

Molecular target: fTHP-15 fluorogenic triple-helical peptide substrate

Row | Km of triple-helical peptidase activity (hydrolysis of fTHP-15), 27 °C, pH 7.5 | Substance
1 | 8.9 µM | MT1-MMP catalytic domain, wild type (enzyme)
2 | 1.6 µM | MT1-MMP ectodomain E392A (enzyme)
3 | 1.7 µM | MT1-MMP ectodomain F360G (enzyme)
4 | 790 nM | MT1-MMP ectodomain N347A (enzyme)
5 | 980 nM | MT1-MMP ectodomain R330A (enzyme)
6 | 4.3 µM | MT1-MMP ectodomain R343A (enzyme)
7 | 1.7 µM | MT1-MMP ectodomain R345A (enzyme)
8 | 820 nM | MT1-MMP soluble ectodomain, wild type (C127S-substituted) (enzyme)
